The target in assay [1] is human CRF receptor, subtype A, variant 1 (hCRF-RA1), encoded by clone hctCRFR (human) (UniProt P34998). Kind of assay: binding to the receptor encoded by hctCRFR in COSM6 cell membranes (competitive radioreceptor assay of Example 3).
The target of assay [2] is T1, mouse CRF receptor, subtype B, variant 1 (mCRF-RB1) (mouse, UniProt Q60748 35-411).
T1 construct: Full-length cDNA (431 amino acids) in pcDNA1, transiently expressed in COSM6 cells; also called pCRF-RB1
Kind of assay: competitive displacement of 125I-(Nle21,Tyr32)-ovine CRF, membranes of COSM6 cells transfected with pCRF-RB1. The method, then: (§1) The reaction was terminated by filtration through GF/C (Whatman) filters, prewetted with 1% BSA, 10 mM HEPES, pH 7.5. The filters were washed 4 times with 1 ml 0.1% BSA, 50 mM Tris, pH 7.5.
(§2) Using the methods described in Example 3, a radioreceptor assay was conducted. Approximately […] of pCRF-RB₁ plasmid DNA was transfected into COSM6 cells using the DEAE dextran method. […] In order to calculate a Kd, the displacement data were analyzed using the Ligand program of Munson and Rodbard (1980), Anal. Biochem., 107:220-239.

In assay [3] the target is T1, mouse CRF receptor, subtype B, variant …. Put plainly: competitive displacement of 125I-(Nle21,Tyr32)-ovine CRF, membranes of COSM6 cells transfected with pCRF-RB1, Ligand program, six experiments. As for the experimental part: as §1, §2
In general terms: In a radioligand displacement assay an active substance lowers the binding of a labelled ligand.

Assay [4] addresses T2, human CRF receptor, subtype A, variant 1 (hCRF-RA1), encoded by clone hctCRFR (human, UniProt P34998 24-415).
T2 construct: Transiently expressed in COSM6 cells; Clone hctCRFR (ATCC 75474) and clone CRF-R1 are both said to encode hCRF-RA1; also called CRF-R1; hctCRF receptor
T2 sequence: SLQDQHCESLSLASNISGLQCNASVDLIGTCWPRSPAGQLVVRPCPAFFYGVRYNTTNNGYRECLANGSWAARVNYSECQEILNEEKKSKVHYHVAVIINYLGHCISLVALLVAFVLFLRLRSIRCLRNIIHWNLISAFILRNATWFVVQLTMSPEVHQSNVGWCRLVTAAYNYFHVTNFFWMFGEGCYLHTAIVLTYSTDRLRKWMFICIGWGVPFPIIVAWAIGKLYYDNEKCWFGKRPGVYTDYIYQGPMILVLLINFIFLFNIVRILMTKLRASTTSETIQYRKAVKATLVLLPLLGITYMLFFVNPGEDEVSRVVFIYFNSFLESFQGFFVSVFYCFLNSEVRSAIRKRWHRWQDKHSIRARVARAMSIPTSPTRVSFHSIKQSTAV
Put plainly: pharmacologic specificity of the receptor of SEQ ID NO:2.

We go through 5 molecules from patent US20040039173A1 (SALK INSTITUTE FOR BIOLOGICAL STUDIES, published 2004).

No end group written: not given here.

T1 sequence (Q60748 other isoform, or with tags, fused parts or gaps mutant limits assumed): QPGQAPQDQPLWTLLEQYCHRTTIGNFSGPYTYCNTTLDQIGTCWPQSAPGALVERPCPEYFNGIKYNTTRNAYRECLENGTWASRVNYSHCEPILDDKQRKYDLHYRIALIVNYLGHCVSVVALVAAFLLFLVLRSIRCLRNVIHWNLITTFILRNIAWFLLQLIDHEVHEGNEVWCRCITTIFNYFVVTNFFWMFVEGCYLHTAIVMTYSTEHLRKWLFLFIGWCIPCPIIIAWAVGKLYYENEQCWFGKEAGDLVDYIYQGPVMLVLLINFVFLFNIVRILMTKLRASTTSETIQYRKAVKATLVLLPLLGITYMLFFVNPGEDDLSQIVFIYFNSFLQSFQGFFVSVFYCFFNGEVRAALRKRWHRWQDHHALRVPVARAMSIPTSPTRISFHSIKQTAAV

Usually Kd stands for the concentration at which binding is half-saturated. High values mean weaker binding, low ones tighter binding. “CRF antagonist a-helical (9-41) CRF (peptide)” gave a dissociation constant (Kd) in assay [1] of 13 nM.

B1: hGRF(1-40)OH (peptide, UniProt P01286 32-71, looked up)
peptide: YADAIFTNSYRKVLGQLSARKLLQDIMSRQQGESNQERGA-OH
notes: range 1-40; also called growth hormone releasing factor
As to B1, the binding result in assay [2] is “no binding”.

B2: rat/human corticotropin-releasing factor (r/h CRF) (ligand, UniProt P06850 154-194, looked up)
peptide: SEEPPISLDLTFHLLREVLEMARAEQLAQQAHSNRKLMEII
notes: mature; The peptide in the assay is the mature 41-residue CRF; also called human/rat CRF; native r/h CRF
In assay [3], B2 yielded a Kd of about 1.3 nM.

Regarding QGPPISIDLSLELLRKMIEIEKQEKEKQQAANNRLLLDTI (ligand, UniProt P01144 1-40, looked up) [sauvagine], the binding result in assay [4] is “binds”.

B3: vasoactive intestinal peptide (VIP) (peptide, UniProt P01282 125-152, looked up)
peptide: HSDAVFTDNYTRLRKQMAVKKYLNSILN
notes: also called vasoactive intestinal polypeptide
With B3, the binding result in assay [2] is reported as “no binding”.
